The results in this text go back to patent publication US20240181050A1 (COMPASS THERAPEUTICS, published 2024).

Numbering of substitutions follows the chain as printed.

For test [1], the target named is T1, mouse CD137 (recombinant, ForteBio Octet) (mouse, UniProt P20334 24-187, limits assumed).
T1 construct: also called murine CD137
T1 sequence (looked up): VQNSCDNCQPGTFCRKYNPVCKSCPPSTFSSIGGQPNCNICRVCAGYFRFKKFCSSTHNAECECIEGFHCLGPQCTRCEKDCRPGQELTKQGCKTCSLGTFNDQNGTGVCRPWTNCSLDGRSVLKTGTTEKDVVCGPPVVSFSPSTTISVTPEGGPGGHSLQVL
In words: ForteBio Octet (BLI) as described in Example 2. The method, then:
Affinity of the CD137 antibodies was determined by measuring their kinetic constants (kₐ, kd, KD) on ForteBio Octet. ForteBio affinity measurements were performed generally as previously described (Estep et al., MAbs. 2013 5(2):270-8). Briefly, ForteBio affinity measurements were performed by loading antibodies (IgGs) on-line onto AHQ sensors. Sensors were equilibrated off-line in assay buffer for 30 minutes and then monitored on-line for 60 seconds for baseline establishment. For avid binding measurement, sensors with loaded IgGs were exposed to 100 nM antigen (human, cyno, or murine CD137) for 3 minutes, afterwards they were transferred to assay buffer for 3 minutes for off-rate measurement. Monovalent binding measurements were obtained by loading human CD137-Fc fusion on AHQ sensors followed by exposure to 200 nM antibody Fab in solution. Kinetics data were fit using a 1:1 binding model in the data analysis software provided by ForteBio (data not shown).
Background: In BLI a coated tip is dipped into the sample, and binding shifts an interference pattern.

In test [2] the target is T2, purified recombinant his tagged human CD137 (human, UniProt Q07011 24-186).
T2 construct: not shown: his tag
In words: Carterra MX96 SPRi; antibody printed on chip, his tagged human CD137 injected. The procedure: The resulting anti-CD137 antibodies from different selection rounds were plotted on kd/kₐ double log plots. Apparent association and dissociation kinetic rate constants (kₐ and kd values) were determined on an SPRi reader (MX96, Carterra) in a running buffer of PBS-T 0.01%. Anti-human CD137 antibodies were covalently printed on a Carboxymethyldextran hydrogel 50 L chip (Xantec bioanalytics) on a CFM (Carterra). Freshly mixed activating reagents (150 […] 0.1 M sulfo-NHS in H2O) were used to activate the surface of the SPR substrate for 7 minutes. Antibodies at 10 mg/ml in acetic acid buffer pH 4.5 were used for printing for 15 minutes. The printed chip was then quenched on SPRi reader (MX96, Carterra) with 1 M ethanolamine for 15 minutes. For kinetics analysis, purified recombinant his tagged human CD137 (0, 2.05, 5.12, 12.8, 32, 80, 200, 500 nM) was injected sequentially. For each concentration, there was 5 minutes of association followed by 10 minutes of dissociation. Data were processed and analyzed in SPR Inspection Tool and Scrubber softwares. The kinetic data were referenced with the interstitial reference spots and double-referenced to a buffer cycle, and then fit globally to a 1:1 binding model to determine their apparent association and dissociation kinetic rate constants (kₐ and kd values). The ratio kd/kₐ was used to derive the KD value of each antigen/mAb interaction, i.e. KD=kd/kₐ.

Test [3] addresses T3, Fc-, mouse IgG2a-, or His-tagged human CD137 (human, UniProt Q07011 24-186).
T3 construct: Antigens came from ACRO Biosystems, Sino Biological and internal sources; not shown: Fc, mouse IgG2a or His tag
In words: BLI Octet HTX; tagged CD137 on biosensor, Fab 0-500 nM in solution; global 1:1 fit, apparent KD. The procedure: (§1) The anti-CD137 antibodies were further tested for their binding to CD137 from multiple species. Specifically, mAb1, mAb8 and mAb10 were analyzed for binding to human, mouse, cynomolgus and canine CD137. Kinetic experiments were performed on Octet HTX (ForteBio) in kinetics buffer (1×PBS, pH 7.4, 0.1 mg/ml BSA, and 0.002% Tween 20). Fc-, mouse IgG2a-, or His-tagged CD137 (human, mouse, cyno or canine) were loaded for 5 minutes on pre-hydrated biosensors, AHC, AMC or NTA respectively. The sensors were then dipped into Fabs (0, 5.12, 12.8, 32, 80, 200 and 500 nM) for 5 minutes of association, following by 15 minutes of dissociation. Results were analyzed with ForteBio Data Analysis 9.0 and fit globally to a 1:1 binding model to determine the apparent KD. KD for human and mouse CD137 binding were confirmed by using antigens from different sources (ACRO Biosystems, Sino Biological and internal).

The target in test [4] is T4, Fc-, mouse IgG2a-, or His-tagged mouse CD137 (mouse, UniProt P20334 24-187).
T4 construct: Antigens came from ACRO Biosystems, Sino Biological and internal sources; not shown: Fc, mouse IgG2a or His tag
T4 sequence (looked up): T1 sequence (looked up)
Described as above. The method, then: as §1

Test [5] addresses T5, Fc-, mouse IgG2a-, or His-tagged cynomolgus CD137 (cynomolgus, UniProt A9YYE7 24-186).
T5 construct: also called cyno CD137; not shown: Fc, mouse IgG2a or His tag
T5 sequence: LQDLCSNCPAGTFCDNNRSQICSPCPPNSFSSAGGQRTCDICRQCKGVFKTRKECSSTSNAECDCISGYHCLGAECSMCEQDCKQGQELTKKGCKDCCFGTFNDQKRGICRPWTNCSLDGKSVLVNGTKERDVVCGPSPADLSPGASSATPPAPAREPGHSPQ
Described as above. The method, then: as §1

The target in test [6] is T6, human CD137 point mutant K114R, soluble protein (human, UniProt Q07011 24-186).
T6 construct: Printed as 'All 4 mutations tested at K114 (R, E, N, T)'; It was isolated from the extracellular-domain library and expressed as a soluble protein
T6 sequence (Q07011 24-186 K114R limits assumed): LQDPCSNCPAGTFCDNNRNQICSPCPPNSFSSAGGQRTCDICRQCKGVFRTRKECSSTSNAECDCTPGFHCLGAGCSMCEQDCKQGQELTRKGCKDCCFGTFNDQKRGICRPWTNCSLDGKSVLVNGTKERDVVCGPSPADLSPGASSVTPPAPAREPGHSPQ
In words: soluble point mutant tested for binding to mAb1; method not named.

In test [7] the target is T7, human CD137 point mutant K114N, soluble protein (human, UniProt Q07011 24-186).
T7 construct: Printed as 'All 4 mutations tested at K114 (R, E, N, T)'; It was expressed as a soluble protein
T7 sequence (Q07011 24-186 K114N limits assumed): as the sequence (Q07011 24-186 K114R limits assumed) above, with R91N counted along it
Described as above.

Test [8] addresses T8, human CD137 point mutant K114T, soluble protein (human, UniProt Q07011 24-186).
T8 construct: Printed as 'All 4 mutations tested at K114 (R, E, N, T)'; It was expressed as a soluble protein
The description is as above.

In test [9] the target is T9, human CD137 point mutant K114E, soluble protein (human, UniProt Q07011 24-186).
T9 construct: Printed as 'All 4 mutations tested at K114 (R, E, N, T)'; It was expressed as a soluble protein
T9 sequence (Q07011 24-186 K114E limits assumed): as the sequence (Q07011 24-186 K114R limits assumed) above, with R91E counted along it
The test is described as above.

T8 sequence (Q07011 24-186 K114T limits assumed): as the sequence (Q07011 24-186 K114R limits assumed) above, with R91T counted along it

B1: mAb12 (antibody, IgG4, V domains shown)
VH: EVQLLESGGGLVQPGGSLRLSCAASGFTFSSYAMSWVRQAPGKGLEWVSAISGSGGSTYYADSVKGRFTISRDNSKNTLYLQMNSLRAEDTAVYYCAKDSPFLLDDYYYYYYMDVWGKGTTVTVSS
VL: DIQLTQSPSSLSASVGDRVTITCRASQDIGDWLAWYQQKPGKAPKLLIYKASGLQSGVPSRFSGSGSGTEFTLTISNLQPEDFATYYCQQGNQFPLTFGQGTRLE
On to B1, for which the Kd in [1] was determined as 25.8 nM; in test [2] it was 12.1 nM.

B2: anti-CD137 mAb8 (antibody, V domains shown)
VH: EVQLLESGGGLVQPGGSLRLSCAASGFTFRNYAMSWVRQAPGKGLEWVSAISGSGDTTYYADSVKGRFTISRDNSKNTLYLQMNSLRAEDTAVYYCAKDSPFLLDDYYYYYYMDVWGKGTTVTVSS
VL: DIQMTQSPSSVSASVGDRVTITCRASQGISSWLAWYQQKPGKAPKLLIYAASSLQSGVPSRFSGSGSGTDFTLTISSLQPEDFATYYCQQGHLFPITFGGGTKVEIK
notes: Generated with IgG4 constant regions
As to B2, the Kd worked out at 72 nM in test [1] and 3.2 nM in test [2].

B3: mAb1 Fab (Fab, V domains shown)
VH: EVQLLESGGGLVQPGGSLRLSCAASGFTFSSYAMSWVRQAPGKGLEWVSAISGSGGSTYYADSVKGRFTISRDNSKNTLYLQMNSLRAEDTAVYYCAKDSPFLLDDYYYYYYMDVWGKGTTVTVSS
VL: B2 VL
For B3, the Kd was in the range of 50 to 70 nM in test [3], 300 to 500 nM in test [4] and 30 to 100 nM in [5].

B4: anti-CD137 mAb10 (antibody, IgG4, V domains shown)
VH: B2 VH with R30Y, N31G, S49A, T57S
VL: B2 VL
notes: as for B2
B4: the Kd in test [1] was 8.4 nM; in [2], 20 nM.

B5: mAb9 (antibody, IgG4, V domains shown)
VH: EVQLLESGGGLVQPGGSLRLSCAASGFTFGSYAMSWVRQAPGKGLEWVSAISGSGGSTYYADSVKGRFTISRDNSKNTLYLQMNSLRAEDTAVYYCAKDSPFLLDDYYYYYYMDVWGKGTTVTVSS
VL: B2 VL
With B5, the Kd in test [1] is 6.9 nM; in test [2], 41.4 nM.

B6: mAb8 Fab (Fab, V domains shown)
VH: B2 VH
VL: B2 VL
As for B6, the Kd in test [3] was 3 to 5 nM; in test [4], 50 to 90 nM; in [5], 3 to 7 nM.

B7: mAb7 (antibody, IgG4, V domains shown)
VH: B2 VH with R30N, N31Y, S52D, T57N, Y59T
VL: B2 VL
As for B7, the Kd in [1] is 1.2 nM; in test [2], 6.8 nM.

B8: mAb10 Fab (Fab, V domains shown)
VH: B2 VH with R30Y, N31G, S49A, T57S
VL: B2 VL
Take B8: the Kd is 0.9 nM in test [3], 10 to 30 nM in [4] and 1.8 nM in test [5].

B9: anti-CD137 mAb1 (antibody, human IgG4 S228P, kappa, V domains shown)
VH: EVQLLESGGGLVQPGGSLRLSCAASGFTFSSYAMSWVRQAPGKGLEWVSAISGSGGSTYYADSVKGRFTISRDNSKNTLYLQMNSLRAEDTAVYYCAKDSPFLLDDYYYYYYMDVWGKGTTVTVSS
VL: DIQMTQSPSSVSASVGDRVTITCRASQGISSWLAWYQQKPGKAPKLLIYAASSLQSGVPSRFSGSGSGTDFTLTISSLQPEDFATYYCQQGHLFPITFGGGTKVEIKR
notes: also called parental mAb1
For B9, the binding result in test [6], in [7], in test [8] and in [9] was “no binding” each time.

B10: mAb11 (antibody, IgG4, V domains shown)
VH: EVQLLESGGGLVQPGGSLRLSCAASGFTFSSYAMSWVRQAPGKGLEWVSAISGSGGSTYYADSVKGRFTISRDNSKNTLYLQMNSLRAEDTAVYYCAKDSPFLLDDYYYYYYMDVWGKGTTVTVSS
VL: DIQMTQSPSTLSASVGDRVTITCRASQNIHNWLAWYQQKPGKAPKLLIYKASGLESGVPSRFSGSGSGTEFTLTISSLQPDDFATYYCQQGDRFPLTFGGGTKVEIK
On to B10, for which the Kd is 4.8 nM in [1] and 4.1 nM in test [2].
